Measured values published in US20120135022A1.

Experiments:
[1] = molecular target: AAV2 capsid protein VP3 (AAV2) (UniProt P03135); test: cell-based or functional assay
[2] = molecular target: AAV1 capsid protein VP3 (AAV1); test: cell-based or functional assay

Chain of UniProt P03135 (P03135 203-735 limits assumed): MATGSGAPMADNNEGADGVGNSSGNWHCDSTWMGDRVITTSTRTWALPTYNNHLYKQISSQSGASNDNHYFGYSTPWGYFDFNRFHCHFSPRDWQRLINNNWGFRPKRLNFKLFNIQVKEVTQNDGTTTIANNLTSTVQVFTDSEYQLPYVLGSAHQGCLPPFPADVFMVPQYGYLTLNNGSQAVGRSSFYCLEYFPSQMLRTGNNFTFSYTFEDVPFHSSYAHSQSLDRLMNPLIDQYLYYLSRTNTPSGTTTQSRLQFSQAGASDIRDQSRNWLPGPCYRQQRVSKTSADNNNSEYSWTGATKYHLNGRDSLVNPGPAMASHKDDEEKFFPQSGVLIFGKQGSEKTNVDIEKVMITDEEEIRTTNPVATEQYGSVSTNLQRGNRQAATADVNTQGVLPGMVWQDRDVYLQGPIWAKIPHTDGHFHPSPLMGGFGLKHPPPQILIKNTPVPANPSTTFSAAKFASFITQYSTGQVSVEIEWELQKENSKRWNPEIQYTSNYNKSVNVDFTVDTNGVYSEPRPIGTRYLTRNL

C-terminally truncated AAP (AAPtru) of AAV2 expressed from pVP2N-gfp (from UniProt D5SGZ8 2-177)
Particle titer (AAV2 capsid ELISA) after trans-complementation [1]: 2.1e+11
Particle titer (AAV1 capsid ELISA) after trans-complementation [2]: 3.4e+10
